{
  "source": "patent US20230265212A1",
  "about": "(OVERA, published 2023)",
  "binders": {"B1": {"name": "monoclonal antibody OV119 (antibody, V domains shown)", "VH": "EVQLQESGPELVKPGASVKISCKTSGYTFTEYPMHWVKQSHGKSLEWIGGINPNNGDTTYNQRFKGKATLTVDKSSGTAYMELRSLTSEDSAVYYCVPNFDWFAYWGQGTLVTVSP", "VL": "DVLMTQSPLSLPVSLGDQASISCRSSQSIVHSYGNTYLEWYLQKPGQSPKLLIYKVSNRFSGVPDRFSGSGSGTDFTLRISRVEAEDLGIYYCFQGSHLPFTFGGGTKLEIK", "notes": "Mouse hybridoma monoclonal IgG; also called naked OV119 (unconjugated)"}, "B2": {"name": "OV119 conjugated using stochastic chemistry (OV119-WT-OM) (antibody, V domains shown)", "VH": "B1 VH", "VL": "B1 VL", "modifications": "drug conjugated by stochastic chemistry; sites and drug load not stated", "notes": "Stochastic conjugate of OV119"}, "B3": {"name": "OV119 conjugated to DM1 using AJICAP site-specific conjugation (antibody, V domains shown)", "VH": "B1 VH", "VL": "B1 VL", "modifications": "DM1 on the heavy chain by AJICAP site-specific conjugation via azide intermediates, 1 or 2 DM1 molecules per heavy chain (DAR 2, 3 and 4); residue not stated", "notes": "Antibody-drug conjugate of mouse IgG OV119; also called OV119-DM1; OV119-CAP-DM1"}, "B4": {"name": "monoclonal antibody OV124 (antibody, V domains shown)", "VH": "EVQLQESGAELMKPGASVKLSCKATGSIFNKYWIDWVRQRPGHGLEWIGEILPGSGSTIYSEKFKGKATITADTSSNTAYMQLSSLTSEDSAVYYCASRALDYWGQGTTLTVSS", "VL": "DVVMTQTPLSLPVSLGDQASISCRSSQSLIHSNGNTYLHWYLQKPGQSPKLLIYQVSNRFSGVPDRFSGSGSGTDFTLKISRVEAEDLGVYFCSQSTHVPYTFGGGTKLEIK"}, "B5": {"name": "monoclonal antibody OV115 (antibody, V domains shown)", "VH": "DVQLQESGPGLVKPSQSLSLTCTVTGYSLTSDYAWNWIRQFPGKKVEWMGYLSYSGRTSYNPSLKSRISITRDTSRNQFFLQLNSVTTEDTATYYCARMGGNFGFDYWGQGTTLTVST", "VL": "GIVMTQAPLSLPVSLGDQASISCRSSQSLVHINGSTYLHWYLQKPGQSPNLLIYKVSYRFSGVPDRFSGSGSGTDFTLKITRVEAEDLGVYFCSQSTHVPLTFGSGTKLEIK"}, "B6": {"name": "monoclonal antibody OV123 (antibody, V domains shown)", "VH": "EVQLQESGPGLVKPSQSLSLTCTVTGYSITSDNAWNWIRQFPGNKLEWMGYISYSGRTSYNPSLKSRISVTRDTSKNRFFLQLNSVTTEDTATYYCARIGSYFTMDYWGQGTSVTVSS", "VL": "DVVMTQTPLSLSVGLGDQASISCRSSQSLVHINGSTYLHWYLQKPGQSPKLLIYKIANRFSGVPDRFSGSGSGTDFTLKISRVEAEDLGAYFCSQSTHVPLTFGAGTKLEIK"}, "B7": {"name": "monoclonal antibody OV121 (antibody, V domains shown)", "VH": "EVQLQESGPGLVKPSQSLSLTCTVTGYSVTSDSAWNWIRQFPGNKLEWMGYISYSGSTTYNPSLKSRISITRDTSENQFFLQLRSVTTEDTATYYCARLGNLFTMDYWGQGTSVTVSA", "VL": "EILLTQSPVILAASPGEKVTITCSASSSLNYMNWYQQRPGSSPKIWIYGISNLASGVPARFSGSGSGTSFSFTINSMEAEDVATYYCQQRSSFPFTFGSGTKLEIK"}},
  "key": {"[1]": {"target": "T1, BSA conjugated to SAS1B peptide A (CGGLEETPESSFLIEGDIIRPSPFRL) (conjugated to BSA)", "T1 peptide": "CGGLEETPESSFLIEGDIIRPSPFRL", "assay": "BLI (Octet)"}, "[2]": {"target": "T2, BSA conjugated to SAS1B peptide A (CGGLEETPESSFLIEGDIIRPSPFRL) (human, conjugated to BSA)", "T2 construct": "also called peptide-BSA conjugate", "T2 peptide": "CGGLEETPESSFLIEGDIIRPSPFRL", "assay": "biolayer interferometry (Octet), peptide-BSA conjugate", "description": "Protein A-Purified antibodies were subjected to binding kinetic analysis via biolayer interferometry (Fortebio's Octet instrument) and the parameters of binding to peptide-BSA conjugate were determined (FIGS. 8 and 9). […] The dissociation constants (Kdis) from these three clones were too slow to be accurately fit (<1×10⁻⁶ sec⁻¹). With the caveat that Kdis were inaccurate due to these long residency times, KDs were calculated (FIGS. 8 and 9)."}, "[3]": {"target": "T2, BSA conjugated to SAS1B peptide A …", "assay": "colorimetric ELISA, BSA-peptide A coated, anti-mouse IgG-HRP", "excerpt": "Colorimetric ELISA data comparing binding of naked OV119 to OV119 conjugated using stochastic chemistry (OV119-WT-OM) and AJICAP site-specific conjugation (OV119-CAP-DM1). The solid phase was coated with BSA conjugated to SAS1B peptide A ([…]). Normalized concentrations of the three antibody moieties were titrated by serial 5-fold dilution. A secondary antibody specific for mouse IgG and conjugated to horse radish peroxidase was then applied. After development using TMB substrate and reaction stopping with H₂SO₄, absorbance of light at 450 nm was measured and plotted against antibody concentration (FIG. 14)."}, "[4]": {"target": "peptide-BSA conjugate (respective antigens of the antibodies)", "assay": "biolayer interferometry (Octet), peptide-BSA conjugate"}, "[5]": {"target": "T1, BSA conjugated to SAS1B peptide A …", "assay": "BLI (Octet)"}},
  "note": "Like-named read-outs stand apart in the source and are kept apart here.",
  "data": [
    {"binder": "B1", "values": [
      {"measurement": "Kd", "setting": "[1]", "result": 0.0343, "unit": "nM"},
      {"measurement": "koff", "setting": "[2]", "result": "< 1e-06", "unit": "s⁻¹"}
    ]},
    {"binder": "B2", "values": [
      {"measurement": "binding result", "setting": "[3]", "result": "binds"}
    ]},
    {"binder": "B3", "values": [
      {"measurement": "binding result", "setting": "[3]", "result": "binds"}
    ]},
    {"binder": "B4", "values": [
      {"measurement": "Kd", "setting": "[1]", "result": 0.115, "unit": "nM"},
      {"measurement": "koff", "setting": "[4]", "result": "< 1e-06", "unit": "s⁻¹"}
    ]},
    {"binder": "B5", "values": [
      {"measurement": "Kd", "setting": "[5]", "result": "< 0.001", "unit": "nM"}
    ]},
    {"binder": "B6", "values": [
      {"measurement": "Kd", "setting": "[1]", "result": 0.284, "unit": "nM"},
      {"measurement": "koff", "setting": "[4]", "result": "< 1e-06", "unit": "s⁻¹"}
    ]},
    {"binder": "B7", "values": [
      {"measurement": "Kd", "setting": "[5]", "result": 0.532, "unit": "nM"}
    ]}
  ]
}
